We go through four molecules from publication PMC6677831, “X-ray Crystallographic Structure and Oligomerization of Gloeobacter Rhodopsin” (Scientific Reports, 2019).

Changes are numbered by the printed parent chain. Numbers in names are those of the source.

Data set [1] has as its target T1, Gloeobacter rhodopsin (GR) (Gloeobacter violaceus, UniProt Q7NP59).
T1 construct: gene gll0198; wild type, C-terminal 6xHis tag, expressed in E. coli C43(DE3) with added retinal; 33 kDa; monomer at pH 3.0, pentamer at pH 8.0 in DDM
The data set can be described thus: X-ray crystal structure, […] A. The format is binding. The conditions noted are these: covalent, protonated Schiff base at Lys257; dark state; bicelle crystals, pH 3.4, 100 K.

In data set [2] the target is Mastigocladopsis repens halorhodopsin (Mastigocladopsis repens). Kind of data set: not stated; unpublished observation of the authors.
Data set [3] concerns the molecule itself. The data set can be described thus: SEC; Superdex 200 10/300 GL; 20 mM Tris-HCl pH 8.0, 300 mM NaCl, 0.04% DDM. (In general: Size exclusion chromatography separates by hydrodynamic size, large species first.)
Data set [4] deals with the molecule itself. Kind of data set: DEER spectroscopy; Q-band, 80 K, 20% deuterated glycerol, GR-67R1 in detergent micelles at pH 8.0; distances between spin labels of protomers.

For the molecule `CC1=C(/C=C/C(C)=C/C=C/C(C)=C/C=O)C(C)(C)CCC1` [all-trans-retinal], in data set [1], the “X-ray crystal structure, 2.0 A” value was “the all-trans-retinal chromophore is covalently bound to the opsin protein moiety via a Schiff base”. What is called stoichiometry N is the number of molecules, sites or subunits per partner or assembly. On to “Mastigocladopsis repens halorhodopsin (natural protein)”, for which the stoichiometry N in data set [2] came to 3.

B1: Gloeobacter rhodopsin (natural protein, Gloeobacter violaceus PCC 7421)
chain: MLMTVFSSAPELALLGSTFAQVDPSNLSVSDSLTYGQFNLVYNAFSFAIAAMFASALFFFSAQALVGQRYRLALLVSAIVVSIAGYHYFRIFNSWDAAYVLENGVYSLTSEKFNDAYRYVDWLLTVPLLLVETVAVLTLPAKEARPLLIKLTVASVLMIATGYPGEISDDITTRIIWGTVSTIPFAYILYVLWVELSRSLVRQPAAVQTLVRNMRWLLLLSWGVYPIAYLLPMLGVSGTSAAVGVQVGYTIADVLAKPVFGLLVFAIALVKTKADQESSEPHAAIGAAANKSGGSLIS
modifications: all-trans-retinal covalently bound to Lys257 via a protonated Schiff base
notes: Gloeobacter rhodopsin (GR), light-driven proton pump of Gloeobacter violaceus PCC 7421; 33 kDa; Membrane protein in detergent micelles (0.04% DDM) in the oligomerisation experiments; also called GR; wild-type GR; source: E. coli C43(DE3), purified (TALON Co2+ column, Superdex 200) in OG or DDM
For the molecule B1, the binding result in data set [3] is “binds”.

B2: spin-labeled GR-67R1 (natural protein, Gloeobacter violaceus PCC 7421)
chain: B1 chain with G67C
modifications: R1 nitroxide side chain at Cys67; all-trans-retinal bound to Lys257 via a Schiff base
notes: Gloeobacter rhodopsin (GR) of Gloeobacter violaceus PCC 7421 with G67C, spin-labeled at 67; also called spin labeled G67C mutant of GR
B2: in data set [4], the “stoichiometry N” value worked out at 5.
